Measured values as given in the nanobody polyreactivity screen of Harvey et al. (2022).

experiment: yeast display, Sf9 membrane polyspecificity reagent, FACS + sequencing; frameworks hold sequencing errors
Method in brief: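 In a synthetic yeast display library (Saccharomyces cerevisiae BJ5465), nanobody expression was induced with galactose for 36–48 hours. FACS gates were set low and high (top ~1%) using anti-HA fluorescence for expression and streptavidin fluorescence for binding of the Sf9 membrane reagent. Each polyreactivity label is drawn from the gate of origin.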

| Sequence | polyreactivity (PSR sort gate) |
| --- | --- |
| QVQLVESGGGLVQAGGSLRLSCAASGHIFYAYAMGWYRQAPGKERELVASITYRGVSTYYADSVKGRFTISRDNAKNTVYLQMNSLKPEDTAVYYCAAGRSRYLWFGRDFDYWGQGTQVTVSS | low polyreactivity |
| QVQLVESGGGLVQAGGSLRLSCAASGIFAYYAMGWYRQAPGKERELVAAISSSGGSTYYADSVKGRFTISRDNAKNTFYLQMNSLKPEDTAVYYCNVRNYYNDYYYWGQGTQVTVSS | high polyreactivity |
| QVQLVESGGGLVQAGGSLRLSCAASGIFDDNAMGWYRQAPGKEREFVAAITISDGTTYYADSVKGRFTISRDNAKNTVDLQMNSLKPEDTAVYYCAADATYFFVYPSVDWQPDIMGYWGQGTQVTVSS | low polyreactivity |
| QVQLVESGGGLVQAGGSLRLSCAASGIFDYYVMGWYRQAPGKERELVAAISKSDGSTYYADSVKGRFTISRDNAKNTVYLQMNSLKQEDTAVYYCNAKLYYNRMDYWGQGTQVTVSS | low polyreactivity |
| QVQLVESGGGLVQAGGSLRLSCAASGIFFHYAMGWYKQAPGKERELVAAISYSGGRTYYADSVKGRFTISRDNAKNTVYLQMNSLKPEDTAVYYCAARYYIGYGHRTYGYDYWGQGTQVTVSS | high polyreactivity |
| QVQLVESGGGLVQAGGSLRLSCAASGIFRKYAMGWYRQAPGTERELVAAITWGGGRTYYADSVKGRFTISRDNAKNTVYLQMNSLKPEDTAVYYCAAEYSLVPSYKVYYWGQGTQVTVSS | high polyreactivity |
| QVQLVESGGGLVQAGGSLRLSCAASGIFSNYAMGWYRQAPGKERELVAAIRSRSGTTYYADSVKGRFTISRDNAKNTVYLQLNSLKPEDTAVYYCDAGGKSRSYYWGQGTQVTVSS | high polyreactivity |
| QVQLVESGGGLVQAGGSLRLSCAASGIFSRYAMGWYRQAPGKERELVAAISSGDSTNYADSVKGRFTISRDNAKNTVYLQMNSLKPEDTAVYYCATERSHLATGQGYYYVQTFYYWGQGTQVTVSS | low polyreactivity |
| QVQLVESGGGLVQAGGSLRLSCAASGIFVVYAMGWYRQAPGKERELVAAISSGVSTTYADSVKGRFTISRDNAKNTVYLQMNSLKPEDTAVYYCNTLWGHQYIVPYRTREFYYWGQGTQVTVSS | low polyreactivity |
| QVQLVESGGGLVQAGGSLRLSCAASGIFWANGMGWYRQAPGKEREWVAAITSGGSTNYADSVKGRFTISRDNAKNTVYLQMNSLKPEDTAVYYCNKPWYSYRYGGVGYGYWGQGTQVTVSS | low polyreactivity |
| QVQLVESGGGLVQAGGSLRLSCAASGIFYRYAMGWYRQAPGKEREFVAAISSTGGSTYYADSVKGRFTISRDNAKNSVYLQMNSLKPEDTAVYYCAKRGSRSGRSDYWGQGTQVTVSS | low polyreactivity |
| QVQLVESGGGLVQAGGSLRLSCAASGIGCYRQAPGKERELVAAINWSGGNTYYADSVKGRFTISRDNAKNTVYLQMNSLKPEDTAVYYCNAVVWVEVPGDYWGQGTQVTVSS | low polyreactivity |
| QVQLVESGGGLVQAGGSLRLSCAASGIICGDNALGLYRQAPGKEWELVAAISSSGTSTNYADSVKGRFTISRDNAKNTVYLQMNSLKPEETAVYYCAKDVLPPYPQSRSGGDYWGQGTQVTVSS | low polyreactivity |
| QVQLVESGGGLVQAGGSLRLSCAASGIIFAANAMGWYRQAPGKERELVAAISKNGGITYYADSVKGRFTISRDTAKNTVYLQMNSLKPEDTAVYYCAARWRQTRRYYYWGQGTQVTVSS | high polyreactivity |
| QVQLVESGGGLVQAGGSLRLSCAASGIIFAAYVMGWYRQAPGKERELVAAISKSGGRTYYADSVKGRFTISRDNAKNTVYLQMNSLKPEDTAVYYCATDVRVGHIRDYDYWGQGTQVTVSS | high polyreactivity |
| QVQLVESGGGLVQAGGSLRLSCAASGIIFAFYAMGWYRQAPGKERELVAAISIDGSTYYADSVKGRFTISRDNAKNTVYLQMNSLKPEDTAVYYCAAEGNGYLVSTWWVRYEYWGQGTQVTVSS | low polyreactivity |
| QVQLVESGGGLVQAGGSLRLSCAASGIIFAHNAMGWYRQAPGKERELVAAISKRGGSTYYADSVKGRFTISRDNAKNTVYLQMNSLKPEDTAVYYCNKYSSYSFTYDSWGQGTQVTVSS | high polyreactivity |
